Measured values: the supplement of paper PMC9112550, “Optimization of the antimicrobial peptide Bac7 by deep mutational scanning” (BMC Biology, 2022)

Test system: Escherichia coli TOP10
Assay: shrunken log2 fold change of peptide-encoding DNA abundance (4.5 h post-induction vs induction); higher = less antimicrobial activity (less host growth inhibition)
Settings: time post-induction: 4.5 h; library: site-saturation at positions 5, 18, 19, 20
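Further: peptides expressed intracellularly from a pBAD plasmid library in pooled LB shake-flask culture, induced with 0.3% L-arabinose, DNA abundance read by NGS, three biological replicates, DESeq2 with apeglm shrinkage.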

Sequence	shrunken log2 fold change
RRIRGRPPRLPRPRPRPMPTPRP	0.612
RRIRGRPPRLPRPRPRPMQAPRP	0.256
RRIRGRPPRLPRPRPRPMQHPRP	1.24
RRIRGRPPRLPRPRPRPMRGPRP	1.09
RRIRGRPPRLPRPRPRPMRHPRP	0.559
RRIRGRPPRLPRPRPRPMRVPRP	1.65
RRIRGRPPRLPRPRPRPMRYPRP	0.347
RRIRGRPPRLPRPRPRPMSNPRP	0.473
RRIRGRPPRLPRPRPRPMWEPRP	1.3
RRIRGRPPRLPRPRPRPMWIPRP	0.218
RRIRGRPPRLPRPRPRPMWTPRP	0.311
RRIRGRPPRLPRPRPRPNAQPRP	0.836
RRIRGRPPRLPRPRPRPNCDPRP	0.382
RRIRGRPPRLPRPRPRPNCLPRP	0.191
RRIRGRPPRLPRPRPRPNESPRP	0.302
RRIRGRPPRLPRPRPRPNFCPRP	0.362
RRIRGRPPRLPRPRPRPNFEPRP	1.87
RRIRGRPPRLPRPRPRPNFPPRP	0.193
RRIRGRPPRLPRPRPRPNHPPRP	0.0349
RRIRGRPPRLPRPRPRPNILPRP	0.199
RRIRGRPPRLPRPRPRPNIYPRP	-0.13
RRIRGRPPRLPRPRPRPNMDPRP	0.265
RRIRGRPPRLPRPRPRPNMNPRP	0.255
RRIRGRPPRLPRPRPRPNMYPRP	-0.185
RRIRGRPPRLPRPRPRPNNKPRP	0.0225

Sequence	shrunken log2 fold change
RRIRGRPPRLPRPRPRPNQFPRP	0.0521
RRIRGRPPRLPRPRPRPNQPPRP	0.295
RRIRGRPPRLPRPRPRPNQVPRP	0.195
RRIRGRPPRLPRPRPRPNRQPRP	0.167
RRIRGRPPRLPRPRPRPNRSPRP	-0.0578
RRIRGRPPRLPRPRPRPNRWPRP	0.617
RRIRGRPPRLPRPRPRPNSEPRP	0.295
RRIRGRPPRLPRPRPRPNSKPRP	0.0993
RRIRGRPPRLPRPRPRPNSYPRP	-0.0855
RRIRGRPPRLPRPRPRPNTGPRP	0.0864
RRIRGRPPRLPRPRPRPNVNPRP	0.371
RRIRGRPPRLPRPRPRPNVVPRP	0.0631
RRIRGRPPRLPRPRPRPNWEPRP	0.21
RRIRGRPPRLPRPRPRPNWLPRP	0.341
RRIRGRPPRLPRPRPRPNWPPRP	0.306
RRIRGRPPRLPRPRPRPNWSPRP	0.131
RRIRGRPPRLPRPRPRPNYAPRP	0.0408
RRIRGRPPRLPRPRPRPPCYPRP	0.265
RRIRGRPPRLPRPRPRPPDHPRP	0.982
RRIRGRPPRLPRPRPRPPEHPRP	0.853
RRIRGRPPRLPRPRPRPPFIPRP	0.627
RRIRGRPPRLPRPRPRPPGLPRP	0.786
RRIRGRPPRLPRPRPRPPHYPRP	0.523
RRIRGRPPRLPRPRPRPPIAPRP	0.874
RRIRGRPPRLPRPRPRPPKAPRP	0.63

Sequence	shrunken log2 fold change
RRIRGRPPRLPRPRPRPPLIPRP	0.669
RRIRGRPPRLPRPRPRPPLMPRP	0.717
RRIRGRPPRLPRPRPRPPMPPRP	0.659
RRIRGRPPRLPRPRPRPPMQPRP	1.12
RRIRGRPPRLPRPRPRPPNAPRP	1.35
RRIRGRPPRLPRPRPRPPNDPRP	0.76
RRIRGRPPRLPRPRPRPPNHPRP	0.942
RRIRGRPPRLPRPRPRPPRGPRP	0.938
RRIRGRPPRLPRPRPRPPVNPRP	0.55
RRIRGRPPRLPRPRPRPPYEPRP	0.0264
RRIRGRPPRLPRPRPRPPYMPRP	-0.0678
RRIRGRPPRLPRPRPRPQAKPRP	1.34
RRIRGRPPRLPRPRPRPQAMPRP	-0.0164
RRIRGRPPRLPRPRPRPQARPRP	0.3
RRIRGRPPRLPRPRPRPQAWPRP	0.69
RRIRGRPPRLPRPRPRPQCAPRP	1.11
RRIRGRPPRLPRPRPRPQCQPRP	0.316
RRIRGRPPRLPRPRPRPQCVPRP	-0.0809
RRIRGRPPRLPRPRPRPQDEPRP	0.111
RRIRGRPPRLPRPRPRPQEYPRP	-0.00348
RRIRGRPPRLPRPRPRPQFHPRP	-0.239
RRIRGRPPRLPRPRPRPQGAPRP	0.807
RRIRGRPPRLPRPRPRPQKRPRP	0.662
RRIRGRPPRLPRPRPRPQKTPRP	-0.0351
RRIRGRPPRLPRPRPRPQLLPRP	0.253
